For assay [1], the target named is T1, human ClC-Kb chloride channel (human, UniProt P51801 1-687).
T1 construct: whole, on cells; Expressed from cRNA in Xenopus oocytes or from cDNA in tsA201 cells; also called CIC-Kb; CLCNKB
T1 sequence (looked up): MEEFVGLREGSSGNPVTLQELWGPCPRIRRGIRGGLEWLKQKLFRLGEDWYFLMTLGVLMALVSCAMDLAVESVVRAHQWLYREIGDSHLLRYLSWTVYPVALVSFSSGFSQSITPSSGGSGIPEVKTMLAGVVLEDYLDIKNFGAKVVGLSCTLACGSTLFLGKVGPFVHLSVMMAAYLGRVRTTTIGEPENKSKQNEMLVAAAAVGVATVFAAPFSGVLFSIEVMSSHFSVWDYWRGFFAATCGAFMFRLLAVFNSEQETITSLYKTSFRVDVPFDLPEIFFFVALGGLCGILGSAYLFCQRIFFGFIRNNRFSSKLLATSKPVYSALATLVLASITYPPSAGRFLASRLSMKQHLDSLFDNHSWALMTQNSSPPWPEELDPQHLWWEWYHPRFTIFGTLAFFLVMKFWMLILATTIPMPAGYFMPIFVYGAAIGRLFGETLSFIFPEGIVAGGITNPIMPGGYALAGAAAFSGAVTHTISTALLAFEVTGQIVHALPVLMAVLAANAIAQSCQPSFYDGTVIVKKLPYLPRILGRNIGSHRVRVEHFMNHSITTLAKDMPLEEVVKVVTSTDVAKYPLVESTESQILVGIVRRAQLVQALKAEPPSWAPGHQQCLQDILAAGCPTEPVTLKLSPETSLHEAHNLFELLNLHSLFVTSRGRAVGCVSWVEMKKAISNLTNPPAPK
The experiment in a line: inferred from co-expression (currents, colocalisation); no direct binding assay.

Assay [2] has as its target T2, human ClC-Ka chloride channel (human, UniProt P51800 1-687).
T2 construct: whole, on cells; Expressed from cRNA in Xenopus oocytes or from cDNA in tsA201 cells; also called CIC-Ka; CLCNKA
T2 sequence (looked up): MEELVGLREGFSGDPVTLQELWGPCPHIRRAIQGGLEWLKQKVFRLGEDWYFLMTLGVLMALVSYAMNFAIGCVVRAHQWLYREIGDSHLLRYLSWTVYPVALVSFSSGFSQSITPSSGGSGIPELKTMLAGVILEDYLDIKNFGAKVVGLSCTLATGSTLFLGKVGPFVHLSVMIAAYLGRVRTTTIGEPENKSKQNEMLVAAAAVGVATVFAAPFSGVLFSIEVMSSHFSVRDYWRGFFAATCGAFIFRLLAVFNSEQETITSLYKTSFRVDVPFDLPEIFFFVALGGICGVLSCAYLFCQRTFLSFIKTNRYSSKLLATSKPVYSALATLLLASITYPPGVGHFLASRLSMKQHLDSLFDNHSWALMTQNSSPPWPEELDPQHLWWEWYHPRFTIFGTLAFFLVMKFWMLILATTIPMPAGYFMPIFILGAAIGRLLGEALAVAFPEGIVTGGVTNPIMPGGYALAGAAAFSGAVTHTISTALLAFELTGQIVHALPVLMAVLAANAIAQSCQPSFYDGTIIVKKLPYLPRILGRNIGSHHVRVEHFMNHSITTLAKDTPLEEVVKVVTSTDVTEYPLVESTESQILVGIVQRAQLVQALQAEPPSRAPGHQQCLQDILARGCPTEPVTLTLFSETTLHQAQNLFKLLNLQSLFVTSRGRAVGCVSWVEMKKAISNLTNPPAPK
The experiment in a line: inferred from co-expression (currents, surface expression, colocalisation); no direct binding assay.

B1: barttin (BSND protein), wild type, human (other)
chain: MADEKTFRIGFIVLGLFLLALGTFLMSHDRPQVYGTFYAMGSVMVIGGIIWSMCQCYPKITFVPADSDFQGILSPKAMGLLENGLAAEMKSPSPQPPYVRLWEEAAYDQSLPDFSHIQMKVMSYSEDHRSLLAPEMGQPKLGTSDGGEGGPGDVQAWMEAAVVIHKGSDESEGERRLTQSWPGPLACPQGPAPLASFQDDLDMDSSEGSSPNASPHDREEACSPQQEPQGCRCPLDRFQDFALIDAPTLEDEPQEGQQWEIALPNNWQRYPRTKVEEKEASDTGGEEPEKEEEDLYYGLPDGAGDLLPDKELGFEPDTQG
notes: Expressed in Xenopus oocytes, tsA201 cells or other transfected cells
For B1, the binding result in assay [1] and in assay [2] was “binds” throughout.

The values are drawn from patent US7253271 (REGENTS OF THE UNIVERSITY OF MICHIGAN, dated 2007).
